Results as given in the Human Domainome abundance scans (Beltran et al. 2025).
± gives the uncertainty stated by the source.

B1: Retinoic acid receptor RXR-alpha, residues 132 to 208; numbered along this chain, P19793 (parent)
chain: KHICAICGDRSSGKHYGVYSCEGCKGFFKRTVRKDLTYTCRDNKDCLIDKRQRNRCQYCRYQKCLAMGMKREAVQEE

Variants of: B1
Assay: abundance fitness (aPCA) (normalised: wild type 0, dead -1); higher = more abundant; growth selection in yeast, the domain comes from the species named
Conditions: Homo sapiens

| Variant | abundance fitness |
| --- | --- |
| V32Y | -0.079 ± 0.035 |
| V32K | -0.012 ± 0.039 |
| V32Q | -0.017 ± 0.041 |
| Y16N | -0.089 ± 0.031 |
| Y16S | 0.014 ± 0.024 |
| E77H | 0.02 ± 0.039 |
| E77R | 0.003 ± 0.035 |
| E77L | -0.012 ± 0.039 |
| E77F | 0.1 ± 0.058 |
| E77V | -0.002 ± 0.041 |
| E77N | 0.065 ± 0.049 |
| E77G | 0.073 ± 0.038 |
| R33L | -0.096 ± 0.028 |
| R33K | 0.05 ± 0.041 |
| R33T | -0.012 ± 0.032 |
| R33E | 0.044 ± 0.044 |
| R33D | -0.005 ± 0.04 |
| G17I | -0.275 ± 0.087 |
| G17H | -0.053 ± 0.089 |
| G17W | -0.163 ± 0.035 |
| G17S | -0.029 ± 0.033 |
| G17C | -0.002 ± 0.059 |
| F28H | -0.495 ± 0.12 |
| F28C | -0.753 ± 0.14 |

| Variant | abundance fitness |
| --- | --- |
| F28T | -0.894 ± 0.12 |
| F28I | -0.289 ± 0.078 |
| Y19L | -0.04 ± 0.029 |
| Y19R | -0.097 ± 0.031 |
| Y19S | -0.067 ± 0.029 |
| Y19T | -0.073 ± 0.035 |
| L36D | 0.053 ± 0.046 |
| L36Y | -0.055 ± 0.073 |
| L36G | 0.022 ± 0.026 |
| L36R | 0.008 ± 0.03 |
| L36W | -0.028 ± 0.037 |
| R10Y | -0.028 ± 0.029 |
| R10N | -0.024 ± 0.031 |
| R10G | -0.072 ± 0.026 |
| R10S | -0.046 ± 0.025 |
| R10L | -0.131 ± 0.024 |
| R10V | -0.199 ± 0.028 |
| D45S | -0.029 ± 0.035 |
| D45V | -0.021 ± 0.071 |
| D45H | -0.066 ± 0.077 |
| D45E | 0.043 ± 0.037 |
| H15M | -0.234 ± 0.031 |
| H15I | -0.181 ± 0.038 |
| H15D | -0.08 ± 0.036 |

| Variant | abundance fitness |
| --- | --- |
| H15E | -0.065 ± 0.031 |
| H15L | -0.138 ± 0.027 |
| H15T | -0.24 ± 0.029 |
| H15S | -0.196 ± 0.026 |
| H15C | -0.081 ± 0.041 |
| H15Q | -0.007 ± 0.034 |
| H15G | -0.056 ± 0.024 |
| R41K | 0.026 ± 0.05 |
| R41W | -0.007 ± 0.057 |
| R41I | 0.041 ± 0.033 |
| C24L | -1.01 ± 0.058 |
| C24D | -0.049 ± 0.033 |
| C24P | -0.904 ± 0.082 |
| C24Q | -0.891 ± 0.087 |
| C24W | -1.01 ± 0.076 |
| A73D | 0.048 ± 0.047 |
| A73V | -0.019 ± 0.032 |
| A73T | 0.009 ± 0.029 |
| K29N | 0.027 ± 0.053 |
| K29S | -0.059 ± 0.039 |
| K29R | -0.003 ± 0.03 |
| K29H | -0.074 ± 0.071 |
| E22R | -0.002 ± 0.031 |
| E22F | -0.097 ± 0.064 |

| Variant | abundance fitness |
| --- | --- |
| E22Y | -0.135 ± 0.057 |
| E22D | -0.062 ± 0.051 |
| E22Q | -0.094 ± 0.043 |
| E22H | -0.104 ± 0.06 |
| E22C | -0.043 ± 0.053 |
| G23I | -0.407 ± 0.04 |
| G23L | -0.407 ± 0.028 |
| G23R | -0.037 ± 0.023 |
| R51D | -0.073 ± 0.081 |
| R51Q | -0.015 ± 0.05 |
| R51T | 0.022 ± 0.058 |
| R51P | 0.045 ± 0.06 |
| Q75H | -0.049 ± 0.032 |
| Q75L | -0.031 ± 0.028 |
| Y58E | 0.043 ± 0.045 |
| Y58I | -0.551 ± 0.12 |
| Y58K | 0.024 ± 0.05 |
| Y58D | 0.045 ± 0.05 |
| S12R | 0.123 ± 0.032 |
| S12I | -0.196 ± 0.12 |
| C59K | -1.05 ± 0.31 |
| C59T | -0.651 ± 0.097 |
| C59S | -0.657 ± 0.075 |
| C59D | -0.647 ± 0.16 |

| Variant | abundance fitness |
| --- | --- |
| C59E | -0.59 ± 0.09 |
| C59W | -0.427 ± 0.091 |
| C59V | -0.915 ± 0.097 |
| E72V | 0.16 ± 0.25 |
| E72W | 0.041 ± 0.2 |
| E72L | -0.046 ± 0.092 |
| E72I | 0.046 ± 0.15 |
| E72Q | -0.042 ± 0.14 |
| I48T | 0 ± 0.057 |
| I48R | -0.02 ± 0.031 |
| I48K | 0.094 ± 0.13 |
| I48W | 0.007 ± 0.041 |
| I48L | 0.016 ± 0.038 |
| I48P | -0.007 ± 0.074 |
| I48Y | -0.342 ± 0.14 |
| I48V | 0.051 ± 0.033 |
| A5E | 0.04 ± 0.036 |
| A5L | 0.037 ± 0.037 |
| A5I | 0.055 ± 0.084 |
| H2N | -0.001 ± 0.062 |
| H2C | -0.267 ± 0.071 |
| K70I | 0.035 ± 0.064 |
| K70M | -0.034 ± 0.042 |
| K70E | -0.074 ± 0.04 |

| Variant | abundance fitness |
| --- | --- |
| K70F | 0.043 ± 0.054 |
| I3Q | -0.211 ± 0.045 |
| I3V | -0.3 ± 0.039 |
| I3Y | -0.058 ± 0.038 |
| I3L | 0.009 ± 0.029 |
| I3D | -0.059 ± 0.035 |
| I3G | -0.28 ± 0.043 |
| K14Q | 0 ± 0.05 |
| K14N | -0.028 ± 0.071 |
| K14I | -0.112 ± 0.088 |
| K14R | -0.115 ± 0.03 |
| K14H | -0.414 ± 0.1 |
| K14D | 0.018 ± 0.045 |
| K50Q | 0.047 ± 0.06 |
| K50R | -0.026 ± 0.037 |
| D9A | -0.091 ± 0.037 |
| D9M | -0.354 ± 0.051 |
| D9K | 0.03 ± 0.044 |
| C7D | -0.357 ± 0.053 |
| C7L | -1.23 ± 0.12 |
| C7K | -1.29 ± 0.22 |
| C7Y | -0.917 ± 0.08 |
| C7V | -1.11 ± 0.14 |
| C7G | -0.921 ± 0.1 |

| Variant | abundance fitness |
| --- | --- |
| C7A | -0.919 ± 0.11 |
| Y61N | 0.101 ± 0.16 |
| C21E | -0.845 ± 0.072 |
| C21A | -1.07 ± 0.072 |
| G26R | -0.018 ± 0.027 |
| G26Q | 0.038 ± 0.035 |
| G26A | 0.002 ± 0.033 |
| G13F | -0.114 ± 0.092 |
| G13L | -0.082 ± 0.041 |
| G13S | -0.121 ± 0.046 |
| V18F | -0.144 ± 0.044 |
| V18D | -0.205 ± 0.047 |
| E76V | 0 ± 0.035 |
| E76S | -0.034 ± 0.029 |
| E76N | 0.022 ± 0.037 |
| S20Y | -0.025 ± 0.03 |
| S20G | 0.065 ± 0.021 |
| S20W | 0.045 ± 0.029 |
| V74G | -0.028 ± 0.036 |
| V74D | -0.039 ± 0.043 |
| V74N | -0.064 ± 0.037 |
| V74I | -0.017 ± 0.035 |
| V74T | 0 ± 0.032 |
